# Data reported in the supplement of paper PMC10567573.
# B1: MFF (parent)
# chain: MAEISRIQYEMEYTEGISQRMRVP
# Variants of: B1
# Experiment: protein stability index of a GFP-peptide fusion (GPS, HEK-293T) (PSI 1-6); higher = more stable
# Details: c terminus: a fixed tail appended
# 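Also: lentivirally expressed fusions sorted by FACS into six bins by GFP to DsRed ratio, PSI derived from sequencing read proportions per bin multiplied by bin number.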
row,Variant,protein stability index
1,IAEISRIQYEMEYTEGISQRMRVP [M1I],2.36
2,VAEISRIQYEMEYTEGISQRMRVP [M1V],2.85
3,YAEISRIQYEMEYTEGISQRMRVP [M1Y],1.9
4,AAEISRIQYEMEYTEGISQRMRVP [M1A],2.92
5,HAEISRIQYEMEYTEGISQRMRVP [M1H],2.92
6,EAEISRIQYEMEYTEGISQRMRVP [M1E],4.04
7,MAEISRIQYEMEYTEGISQRMRVH [P24H],2.02
8,MAEISRIQYEMEYTEGISQRMRVQ [P24Q],2.75
9,MAEISRIQYEMEYTEGISQRMRVW [P24W],1.32
10,MAEISRIQYEMEYTEGISQRMRVD [P24D],2.7
11,MAEISRIQYEMEYTEGISQRMRVY [P24Y],1.85
12,MAEISRIQYEMEVTEGISQRMRVP [Y13V],3.12
13,MAEISRIQYEMEHTEGISQRMRVP [Y13H],3.26
14,MAEISRIQYEMETTEGISQRMRVP [Y13T],3.46
15,MAEISRIQYEMEWTEGISQRMRVP [Y13W],2.77
16,MAEISRIQYEMENTEGISQRMRVP [Y13N],3.45
17,MAEISRIQYEMEQTEGISQRMRVP [Y13Q],3.35
18,MAYISRIQYEMEYTEGISQRMRVP [E3Y],2.01
19,MAQISRIQYEMEYTEGISQRMRVP [E3Q],2.07
20,MARISRIQYEMEYTEGISQRMRVP [E3R],2.39
21,MAIISRIQYEMEYTEGISQRMRVP [E3I],1.7
22,MAFISRIQYEMEYTEGISQRMRVP [E3F],1.76
23,MANISRIQYEMEYTEGISQRMRVP [E3N],2.41
24,MASISRIQYEMEYTEGISQRMRVP [E3S],1.85

row,Variant,protein stability index
1,MAEISRIQYEMEYTEYISQRMRVP [G16Y],1.48
2,MAEISRIQYEMEYTEPISQRMRVP [G16P],3.13
3,MAEISRIQYEMEYTEKISQRMRVP [G16K],2.71
4,MAEISRIQYEMEYTERISQRMRVP [G16R],1.9
5,MAEISRIQYEMEYTEEISQRMRVP [G16E],3.12
6,MAEISRIQYEMEYTQGISQRMRVP [E15Q],2.42
7,MAEISRIQYEMEYTPGISQRMRVP [E15P],1.96
8,MAEISRIQYEMEYTRGISQRMRVP [E15R],2.45
9,MAEISRIQYEMEYTGGISQRMRVP [E15G],2.15
10,MAEISRIQYEMEYTHGISQRMRVP [E15H],2.21
11,MAEMSRIQYEMEYTEGISQRMRVP [I4M],3.56
12,MAEQSRIQYEMEYTEGISQRMRVP [I4Q],3.8
13,MAETSRIQYEMEYTEGISQRMRVP [I4T],3.86
14,MAEHSRIQYEMEYTEGISQRMRVP [I4H],3.34
15,MAEDSRIQYEMEYTEGISQRMRVP [I4D],3.41
16,MAEGSRIQYEMEYTEGISQRMRVP [I4G],3.4
17,MAEISRQQYEMEYTEGISQRMRVP [I7Q],3.43
18,MAEISRDQYEMEYTEGISQRMRVP [I7D],3.8
19,MAEISREQYEMEYTEGISQRMRVP [I7E],4.11
20,MAEISRNQYEMEYTEGISQRMRVP [I7N],3.6
21,MAEISRGQYEMEYTEGISQRMRVP [I7G],3.03
22,MAEISRIQYEMEYTEGIFQRMRVP [S18F],1.97
23,MAEISRIQYEMEYTEGINQRMRVP [S18N],2.98
24,MAEISRIQYEMEYTEGIAQRMRVP [S18A],1.56

row,Variant,protein stability index
1,MAEISRIQYEMEYTEGIWQRMRVP [S18W],1.89
2,MAEISRIQYEMEYREGISQRMRVP [T14R],2.35
3,MAEISRIQYEMEYLEGISQRMRVP [T14L],2.07
4,MAEISRIQYEMEYIEGISQRMRVP [T14I],1.86
5,MAEISRIQVEMEYTEGISQRMRVP [Y9V],2.15
6,MAEISRIQNEMEYTEGISQRMRVP [Y9N],3.07
7,MAEISRIQIEMEYTEGISQRMRVP [Y9I],1.71
8,MAEISRIQCEMEYTEGISQRMRVP [Y9C],2.78
9,MAEISRIQQEMEYTEGISQRMRVP [Y9Q],3.35
10,MAEISRIQYEMEYTEGISQRMRSP [V23S],2.51
11,MAEISRIQYEMEYTEGISQRMRFP [V23F],1.99
12,MAEISRIQYEMEYTEGISQRMRTP [V23T],2.56
13,MAEISRIQYEMEYTEGISQRMRWP [V23W],1.7
14,MAEISRIQYEMEYTEGISQRMRYP [V23Y],2.41
15,MAEISRIQYEMEYTEGISQRMRMP [V23M],2.63
16,MAEISRIQYEMEYTEGISQRMRRP [V23R],2.73
17,MAEISRIQYEMEYTEGISQRMRHP [V23H],2.54
18,MAEISRIQYEMVYTEGISQRMRVP [E12V],1.76
19,MAEISRIQYEMNYTEGISQRMRVP [E12N],2.4
20,MAEISRIQYEMRYTEGISQRMRVP [E12R],2.31
21,MAEISRIQYEMPYTEGISQRMRVP [E12P],2.81
22,MAEISRIQYEMLYTEGISQRMRVP [E12L],1.74
23,MAEISRIQYEMIYTEGISQRMRVP [E12I],1.28
24,MAEISRIQYEMHYTEGISQRMRVP [E12H],2.26

row,Variant,protein stability index
1,MAEIIRIQYEMEYTEGISQRMRVP [S5I],2.11
2,MAEILRIQYEMEYTEGISQRMRVP [S5L],2.17
3,MAEIKRIQYEMEYTEGISQRMRVP [S5K],2.17
4,MAEIPRIQYEMEYTEGISQRMRVP [S5P],3.52
5,MAEINRIQYEMEYTEGISQRMRVP [S5N],2.53
6,MAEIDRIQYEMEYTEGISQRMRVP [S5D],3.39
7,MAEIGRIQYEMEYTEGISQRMRVP [S5G],2.27
8,MAEISRIRYEMEYTEGISQRMRVP [Q8R],2.21
9,MAEISRIKYEMEYTEGISQRMRVP [Q8K],2.13
10,MAEISRIQYEMEYTEGCSQRMRVP [I17C],2.92
11,MAEISRIQYEMEYTEGESQRMRVP [I17E],3.36
12,MAEISRIQYEMEYTEGYSQRMRVP [I17Y],2.62
13,MAEISRIQYEMEYTEGLSQRMRVP [I17L],2.52
14,MAEISRIQYEMEYTEGDSQRMRVP [I17D],3.95
15,MAEISRIQYEMEYTEGQSQRMRVP [I17Q],3.76
16,MAEISRIQYEMEYTEGFSQRMRVP [I17F],1.99
17,MAEISRIQYEDEYTEGISQRMRVP [M11D],3.61
18,MAEISRIQYEVEYTEGISQRMRVP [M11V],2.89
19,MAEISRIQYECEYTEGISQRMRVP [M11C],3.04
20,MAEISRIQYESEYTEGISQRMRVP [M11S],3.19
21,MAEISRIQYENEYTEGISQRMRVP [M11N],3.78
22,MAEISRIQYEMEYTEGISQRMGVP [R22G],2.46
23,MAEISRIQYEMEYTEGISQRMLVP [R22L],2.48
